Measurements reported in the nanobody polyreactivity screen of Harvey et al. (2022).

Assay: yeast display, Sf9 membrane polyspecificity reagent, FACS + sequencing; frameworks hold sequencing errors
Method in brief: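 Using colony PCR, genes from sorted yeast display clones were amplified, then sequenced on MiSeq at 2 × 250 and filtered by CDR length. The clones had been stained with 10% biotinylated, detergent-solubilized Sf9 membrane reagent for 1 hour at 4 °C and sorted by FACS into low and high (top ~1%) gates on anti-HA and streptavidin fluorescence. Polyreactivity labels come from the gate of origin.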
In the case of “QVQLVESGGGLVQAGGSLRLSCAASGSIFERYSMGWYRQATGKERELFATISKSGDSKYYADSVKGRFTISRDNAKNTVYFQMNRLKPEDTAVYYCSADGWYETSDATFYYWGQGTQVNVSS”, the “polyreactivity (PSR sort gate)” value is reported as “low polyreactivity”.
For “QVQLVESGGGLVQAGGSLRLSCAASGSIFESNAMGWYRQAPGKERELVAAYADSVKGRFTISRDNAKNTVYLQMNSLKPEDTAVYYCAKSLSLYVVPLYEYWGQGTQVTVSS”, the “polyreactivity (PSR sort gate)” value was “low polyreactivity”.
With “QVQLVESGGGLVQAGGSLRLSCAASGSIFESYVMGWYRQAPGKERELVAAISYTGDDTYYADSVKGRFTISRDNAKNTVYLQMNSLKPEDTAVYYCNADNYYYYPWYVRALDSWGQGTQVTVSS” the “polyreactivity (PSR sort gate)” value was “low polyreactivity”.
With “QVQLVESGGGLVQAGGSLRLSCAASGSIFEVYAMGWYRQAPGKEREFVATISGSGGSTYYADSVKGRFTISRDNAKNTVYLQMNSLKPEDTAVYYCAASIAWYSSFVITYYYWGQGTQVTVSS” the “polyreactivity (PSR sort gate)” value was “low polyreactivity”.
With “QVQLVESGGGLVQAGGSLRLSCAASGSIFEWYAMGWYRQAPGKERELVATITGSGGSTYYADSVKGRFTISRDNAKNTVYLQMNSLKPEDTAVYYCAAVPPPGGLDYWGQGTQVTVSS” the “polyreactivity (PSR sort gate)” value was “high polyreactivity”.
With “QVQLVESGGGLVQAGGSLRLSCAASGSIFEYYAMGWYRQAPGKERELVAAITWSGGSTYYADSVKGRFTISRDNAKNTVYLQMNSLKPEDTAVYYCAKGYYVYGIFHRFGYYWGQGTQVTVSS” the “polyreactivity (PSR sort gate)” value was “high polyreactivity”.
For “QVQLVESGGGLVQAGGSLRLSCAASGSIFFDGNAMGWYRQAPGKERELVAAISVSGGSTYYADSVKGRFTISRDNAKNTVYLQMNSLKAEDTAVYYCAKYPSKSYVPGDYWGQGTQVTVSS”, the “polyreactivity (PSR sort gate)” value was “low polyreactivity”.
In the case of “QVQLVESGGGLVQAGGSLRLSCAASGSIFFENDMGWYRQAPGKEREFVAAISLSSASTYYADSVKGRFTISRDNAKNTVYLQMNSLKPEDTAVYYCAADAIFGWPTFDYWGQGTQVTVSS”, the “polyreactivity (PSR sort gate)” value is reported as “low polyreactivity”.
With “QVQLVESGGGLVQAGGSLRLSCAASGSIFFGNAMGWYRQAPGKERELVAAIDGTGASTYYADSVKGRFTISRDNAKNTVYLQMNSLKPEDTAVYYCNKALTSKDYPVRTVERDYWGQGTKVTVSS” the “polyreactivity (PSR sort gate)” value was “low polyreactivity”.
In the case of “QVQLVESGGGLVQAGGSLRLSCAASGSIFFGYAMGWYRQAPGKERELVAAISTRGGRSYYADSVKGRFTISRDNAKNTVYFQMNSLKPVDTAVYYCNAASLVQAYSHADERYDYWGQGTQVTVSS”, the “polyreactivity (PSR sort gate)” value is reported as “high polyreactivity”.
For “QVQLVESGGGLVQAGGSLRLSCAASGSIFFGYAMGWYRQAPGKERELVAGISSNGGTTYYADSVKGRFTISRDHANNTVNLQMNSQKPEDTAVYDCATQYYARGYLYDYWGQGTQVTVSS”, the “polyreactivity (PSR sort gate)” value was “low polyreactivity”.
With “QVQLVESGGGLVQAGGSLRLSCAASGSIFFINAMGWYRQAPGKERELVASISQSGVSTYYADSVKGRFTISRDNAKNTVYLQMNSLKPEDTAVYYCATGPVRRARYVWSYTYYYWGQGTQVTVSS” the “polyreactivity (PSR sort gate)” value was “low polyreactivity”.
For “QVQLVESGGGLVQAGGSLRLSCAASGSIFFIYAIGWYRQAPGKQRELVATISSGGSTYYADSVKGRFRISRDIAKNTVYLQMNSLKPEDTAVYYCAADGIVQDGLEWEYDYWGQGTQVTVSS”, the “polyreactivity (PSR sort gate)” value was “low polyreactivity”.
For “QVQLVESGGGLVQAGGSLRLSCAASGSIFFLYAMGWYRQAPGKERELVAAISLSTGNTYYADSVKGRFTISRDNAKNTVYLQMNSLKPEDSAVYYCAATYVSISYRYDYWGQGTQVTVSS”, the “polyreactivity (PSR sort gate)” value was “high polyreactivity”.
With “QVQLVESGGGLVQAGGSLRLSCAASGSIFFLYAMGWYRQAPGKERELVAAISVGGGSTYYADSVKGRFTFSRDNAKNTVYLHMNSLKPEDTAVYYCAALSKTRGGYWGQGTQVTVSS” the “polyreactivity (PSR sort gate)” value was “high polyreactivity”.
For “QVQLVESGGGLVQAGGSLRLSCAASGSIFFNYAMGWYRKAPGKERELVATITSGGSTYYADSVKGRFTISRDNAKNTVYLQMNSLKPEDTAVYYCAVDEYFAFDYWGQGTQVTVSS”, the “polyreactivity (PSR sort gate)” value was “low polyreactivity”.
For “QVQLVESGGGLVQAGGSLRLSCAASGSIFFNYAMGWYRQAPGKERELVAAITRSGGSTYYADSVKGRFTISRDNAKNTVYLQMNSLKPEDTAVYYCAARYPFGSLGRYGYWGQGTQVTVSS”, the “polyreactivity (PSR sort gate)” value was “high polyreactivity”.
With “QVQLVESGGGLVQAGGSLRLSCAASGSIFFPNAMGWYRQAPGKERELVAAIRGGTNTYYADSVKGRFTISRDNAKTTVYLQLNSLKPEDTAVYYCAARRSSHWFTYDYWGQGTQVTVSS” the “polyreactivity (PSR sort gate)” value was “high polyreactivity”.
In the case of “QVQLVESGGGLVQAGGSLRLSCAASGSIFFPYAMGWYRQAPGKERELVAAISYSGTSRYYADSVKGRFTISRDNAKNTVYLQMNSLKPEDTAVYYCAAYSRYYASYDYWGQGTQVTVSS”, the “polyreactivity (PSR sort gate)” value is reported as “high polyreactivity”.
For “QVQLVESGGGLVQAGGSLRLSCAASGSIFFSNAMGWYRQAPGKERELVAGIRSGGITNYADSVKGRFTISRDNAKNTVYLQMNSLKPEDSAVYYCAKLKDHGRYAYAFDYWGQGTQVTVSS”, the “polyreactivity (PSR sort gate)” value was “low polyreactivity”.
With “QVQLVESGGGLVQAGGSLRLSCAASGSIFFVNDMGWYRQAPGKERELVAAITRDGGTNYADSVKGRFTISRDNAKNTVYLQMNSLKPEDTAVYYCAKESGSVLSLYDYWGQGTQVTVSS” the “polyreactivity (PSR sort gate)” value was “low polyreactivity”.
For “QVQLVESGGGLVQAGGSLRLSCAASGSIFFVYDMGWYRQAPGKERELVAAITWSGGRTTYADSVKGRFTISRDNAKNTVYLQMNSLKPEDTAVYYCAKAWPDHWYSRYDYWGQGTQVTVSS”, the “polyreactivity (PSR sort gate)” value was “low polyreactivity”.
In the case of “QVQLVESGGGLVQAGGSLRLSCAASGSIFFWYTMGWYRQAPGKERDLVATITGSGSSTTYADSVKGRFTISRDNAKNTVYLQMNSLKPEDTAVYSCAAADIIDHSFPYDYWGQGTQVTVSS”, the “polyreactivity (PSR sort gate)” value is reported as “low polyreactivity”.
In the case of “QVQLVESGGGLVQAGGSLRLSCAASGSIFFWYTRGWYRQEPGKERQLVATITGSGSSTTYADSVKGRFTISRDNAKNSVYLQMNSLKPEDTAVYYCAAADIIDHSFPYDYWGQGTQVTVSS”, the “polyreactivity (PSR sort gate)” value is reported as “low polyreactivity”.
For “QVQLVESGGGLVQAGGSLRLSCAASGSIFFYNAMGWYRQAPGKERELVAAISRGGSTYYADSVKGRFTISRDNAKNTVYLQMNSLKPEDTAVYYCAVQRRRNSNVLFDYWGQGTQVTVSS”, the “polyreactivity (PSR sort gate)” value was “high polyreactivity”.
With “QVQLVESGGGLVQAGGSLRLSCAASGSIFFYNTMGWYRQARGKERELVATINSDDSTYYADSVKGGFTISRDNAKNTVYIQMNSLKPEDTAVYYCNVRVKGGKLVAYDYWGQGTQVTLSS” the “polyreactivity (PSR sort gate)” value was “low polyreactivity”.
In the case of “QVQLVESGGGLVQAGGSLRLSCAASGSIFFYYAMGWYRQAPGKERELVAAINSDGSTNYADSVKGRFTISRDNAKNTVYLQMNSLKPEDTAVYYCAAYDEYYGYDYWGQGTQVTVSS”, the “polyreactivity (PSR sort gate)” value is reported as “low polyreactivity”.
In the case of “QVQLVESGGGLVQAGGSLRLSCAASGSIFFYYAMGWYRQAPGKERELVAAISYSDGTTYYADSVKGRFTISRDNAKNTVYLQMNSLKPEDTAVYYCAADLWVGLVSLWDGYVEYDYWGQGTQVTVSS”, the “polyreactivity (PSR sort gate)” value is reported as “low polyreactivity”.
For “QVQLVESGGGLVQAGGSLRLSCAASGSIFGANTMGWYRQAPWKERELVAGITSRARTYYADSVKGRFTISRDNAKNTVYLQMNSLKPEDTAVYYCAAKYAWRRYGYWGQGTQVTVSS”, the “polyreactivity (PSR sort gate)” value was “high polyreactivity”.
For “QVQLVESGGGLVQAGGSLRLSCAASGSIFGAYAMGWYRQAPGKERELVAAINYGGATTYYADSVKGRFTISRDNAKNTVYLQMNSLKPEDTAVYYCAADYLYAYGDVAVVYGWYAYYYWGQGTQVTVSS”, the “polyreactivity (PSR sort gate)” value was “low polyreactivity”.
In the case of “QVQLVESGGGLVQAGGSLRLSCAASGSIFGAYTMRWYRQAPGKERELVAAITGGGITNYADSVKGRFTISRDNAKNTVYLQMNSLKPEDTAVYYCNAGYPPQTVVVGYDYWGQGTQVTVSS”, the “polyreactivity (PSR sort gate)” value is reported as “low polyreactivity”.
With “QVQLVESGGGLVQAGGSLRLSCAASGSIFGDNAMGWYRQAPGKERELVAAINYNGGRTYYADSVKGRFTISRDNAKNTVYLQMNSLKPEDTAVYYCAKDNYQAPVQQYPFDYWGQGTQVTVSS” the “polyreactivity (PSR sort gate)” value was “low polyreactivity”.
For “QVQLVESGGGLVQAGGSLRLSCAASGSIFGDNAMGWYRQAPGKERELVAAISIVGSTSYADSVKGRFTISRDNAKNTVYLQMNSLKPEDTAVYDCAAEIVRSDTGFDYWGQGTQVTVSS”, the “polyreactivity (PSR sort gate)” value was “low polyreactivity”.
With “QVQLVESGGGLVQAGGSLRLSCAASGSIFGDNAMGWYRQAPRKERELVAVISSSGSTYYADSVKGRFTISRDNAKNTVFLQMNSLKPEDSAVYYCNAYQFDWYEEYYYWGQGTQVTVSS” the “polyreactivity (PSR sort gate)” value was “low polyreactivity”.
In the case of “QVQLVESGGGLVQAGGSLRLSCAASGSIFGDYAMGWYRQAPGKEREFVAGITRRGGRTYYADSVKGRFTISRDNAKNTVYLQMNSLKPEDTAVYYCNAVYSSSLRSKYDYWGQGTQVTVSS”, the “polyreactivity (PSR sort gate)” value is reported as “high polyreactivity”.
In the case of “QVQLVESGGGLVQAGGSLRLSCAASGSIFGDYAMGWYRQAPGKERELVATITWIGGSTYYADSVKGRFTISRDNAKNTVYLQMNSLKPEDTAVYYCAATKYVDVKYYYWGQGTQVTVSS”, the “polyreactivity (PSR sort gate)” value is reported as “low polyreactivity”.
With “QVQLVESGGGLVQAGGSLRLSCAASGSIFGDYAMGWYRQAPVKERELVATITWIGGSTYYADSVKGRFTISRDNAKNTVYLQMNSLTPEDTAVYYCAATKYVDVKYYYWGQGTQVTVSS” the “polyreactivity (PSR sort gate)” value was “low polyreactivity”.
With “QVQLVESGGGLVQAGGSLRLSCAASGSIFGDYVMGWYRQAPGKERELVAAINRGGSTYYADSVKGRFTISRDNAKNTVYLQMNSLKPEDTALYYCAAGYPSWYYGYPYDSWGQGTQVTVSS” the “polyreactivity (PSR sort gate)” value was “low polyreactivity”.
In the case of “QVQLVESGGGLVQAGGSLRLSCAASGSIFGEIAMGWYRQAPGKERELVAAISSGVSTNYADSVKGRFTISRDNAKNTVYLQMNSLKPEDTAVYYCAVDSLPNSPYDYWGHGTQVTVSS”, the “polyreactivity (PSR sort gate)” value is reported as “low polyreactivity”.
With “QVQLVESGGGLVQAGGSLRLSCAASGSIFGENAMGRYRQAPGKERELVAAITSGGSTDYADSVKGRFTISRDNAKNTVYLQMNSLKPEDTAVYYCAASGRVGPGYWYDSWGQGTQVTVSS” the “polyreactivity (PSR sort gate)” value was “low polyreactivity”.
In the case of “QVQLVESGGGLVQAGGSLRLSCAASGSIFGENAMGWYRQAPGKERELVASITESGVTTYYADSVKGRFTISRDNAKNTVYLQMNSLKPEDTAVYYFWGQGTQVTVSS”, the “polyreactivity (PSR sort gate)” value is reported as “low polyreactivity”.
